Laboratory results from patent US20260347476 (published 2026).

T1: IL-15Rbetagamma heterodimer (human, UniProt P14784)
T1 chain 1: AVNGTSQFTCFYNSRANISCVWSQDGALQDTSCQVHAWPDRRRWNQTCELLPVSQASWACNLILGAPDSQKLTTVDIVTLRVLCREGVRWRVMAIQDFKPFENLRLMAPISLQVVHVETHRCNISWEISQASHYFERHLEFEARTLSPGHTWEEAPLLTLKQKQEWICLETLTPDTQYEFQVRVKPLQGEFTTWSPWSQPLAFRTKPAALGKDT
T1 chain 2: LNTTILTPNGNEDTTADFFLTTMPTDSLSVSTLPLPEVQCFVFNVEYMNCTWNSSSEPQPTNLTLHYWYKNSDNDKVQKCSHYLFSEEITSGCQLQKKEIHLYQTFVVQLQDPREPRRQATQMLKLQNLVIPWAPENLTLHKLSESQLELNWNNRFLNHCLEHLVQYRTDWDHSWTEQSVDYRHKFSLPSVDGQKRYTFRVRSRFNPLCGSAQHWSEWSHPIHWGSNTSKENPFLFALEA

B1: RV36:IL-15 complex (antibody)
chain 1: QVQLVQSGAEVKKPGASVKVSCKASGYSFSSFGISWVRQAPGQGLEWLGWISAFNGYTKYAQKFQDRVTMTTDTSTSTAYMELRSLRSDDTAVYYCARDPAAWPLQQSLAWFDPWGQGTMVTVSS
chain 2: QSVLTQPPSASGTPGQRVTISCSGSTSNLKRNYVYWYQQLPGTAPKLLIYRDRRRPSGVPDRFSGSKSGTSASLAISGLRSEDEADYYCAWYDRELSEWVFGGGTKLTVL
chain 3: not shown
B2: RV26:IL-15 complex (antibody)
chain 1: QVQLVQSGAEVKKPGASVKVSCKASGYSFSSFGISWVRQAPGQGLEWLGWISAFNGYTKYAQKFQDRVTMTTDTSTSTAYMELRSLRSDDTAVYYCARDPAAWPLQQSLAWFDPWGQGTMVTVSS
chain 2: QSVLTQPPSASGTPGQRVTISCSGSTSNLKRNYVYWYQQLPGTAPKLLIYRDRRRPSGVPDRFSGSKSGTSASLAISGLRSEDEADYYCAWYDRELSEWVFGGGTKLTVL
chain 3: not shown
B3: RV32 IL-15 arm (antibody, V domains shown)
VH: QVQLVQSGAEVKKPGASVKVSCKASGYSFSSFGISWVRQAPGQGLEWLGWISAFNGYTKYAQKFQDRVTMTTDTSTSTAYMELRSLRSDDTAVYYCARDPAAWPLQQSLAWFDPWGQGTMVTVSS
VL: QSVLTQPPSASGTPGQRVTISCSGSTSNLKRNYVYWYQQLPGTAPKLLIYRDRRRPSGVPDRFSGSKSGTSASLAISGLRSEDEADYYCAWYDRELSEWVFGGGTKLTVL
B4: RV18 IL-15 arm (antibody, V domains shown)
VH: QVQLVQSGAEVKKPGASVKVSCKASGYSFSSFGISWVRQAPGQGLEWLGWISAFNGYTKYAQKFQDRVTMTTDTSTSTAYMELRSLRSDDTAVYYCARDPAAWPLQQSLAWFDPWGQGTMVTVSS
VL: QSVLTQPPSASGTPGQRVTISCSGSTSNLKRNYVYWYQQLPGTAPKLLIYRDRRRPSGVPDRFSGSKSGTSASLAISGLRSEDEADYYCAWYDRELSEWVFGGGTKLTVL
B5: RV1:IL-15 complex (antibody)
chain 1: QVQLVQSGAEVKKPGASVKVSCKASGYSFSSFGISWVRQAPGQGLEWLGWISAFNGYTKYAQKFQDRVTMTTDTSTSTAYMELRSLRSDDTAVYYCARDPAAWPLQQSLAWFDPWGQGTMVTVSS
chain 2: QSVLTQPPSASGTPGQRVTISCSGSTSNLKRNYVYWYQQLPGTAPKLLIYRDRRRPSGVPDRFSGSKSGTSASLAISGLRSEDEADYYCAWYDRELSEWVFGGGTKLTVL
chain 3: not shown
B6: RV29:IL-15 complex (antibody)
chain 1: QVQLVQSGAEVKKPGASVKVSCKASGYSFSSFGISWVRQAPGQGLEWLGWISAFNGYTKYAQKFQDRVTMTTDTSTSTAYMELRSLRSDDTAVYYCARDPAAWPLQQSLAWFDPWGQGTMVTVSS
chain 2: QSVLTQPPSASGTPGQRVTISCSGSTSNLKRNYVYWYQQLPGTAPKLLIYRDRRRPSGVPDRFSGSKSGTSASLAISGLRSEDEADYYCAWYDRELSEWVFGGGTKLTVL
chain 3: not shown
B7: RV31:IL-15 complex (antibody)
chain 1: QVQLVQSGAEVKKPGASVKVSCKASGYSFSSFGISWVRQAPGQGLEWLGWISAFNGYTKYAQKFQDRVTMTTDTSTSTAYMELRSLRSDDTAVYYCARDPAAWPLQQSLAWFDPWGQGTMVTVSS
chain 2: QSVLTQPPSASGTPGQRVTISCSGSTSNLKRNYVYWYQQLPGTAPKLLIYRDRRRPSGVPDRFSGSKSGTSASLAISGLRSEDEADYYCAWYDRELSEWVFGGGTKLTVL
chain 3: not shown
B8: RV29 IL-15 arm (antibody, V domains shown)
VH: QVQLVQSGAEVKKPGASVKVSCKASGYSFSSFGISWVRQAPGQGLEWLGWISAFNGYTKYAQKFQDRVTMTTDTSTSTAYMELRSLRSDDTAVYYCARDPAAWPLQQSLAWFDPWGQGTMVTVSS
VL: QSVLTQPPSASGTPGQRVTISCSGSTSNLKRNYVYWYQQLPGTAPKLLIYRDRRRPSGVPDRFSGSKSGTSASLAISGLRSEDEADYYCAWYDRELSEWVFGGGTKLTVL
B9: RV18:IL-15 complex (antibody)
chain 1: QVQLVQSGAEVKKPGASVKVSCKASGYSFSSFGISWVRQAPGQGLEWLGWISAFNGYTKYAQKFQDRVTMTTDTSTSTAYMELRSLRSDDTAVYYCARDPAAWPLQQSLAWFDPWGQGTMVTVSS
chain 2: QSVLTQPPSASGTPGQRVTISCSGSTSNLKRNYVYWYQQLPGTAPKLLIYRDRRRPSGVPDRFSGSKSGTSASLAISGLRSEDEADYYCAWYDRELSEWVFGGGTKLTVL
chain 3: not shown
B10: RV19 IL-15 arm (antibody, V domains shown)
VH: QVQLVQSGAEVKKPGASVKVSCKASGYSFSSFGISWVRQAPGQGLEWLGWISAFNGYTKYAQKFQDRVTMTTDTSTSTAYMELRSLRSDDTAVYYCARDPAAWPLQQSLAWFDPWGQGTMVTVSS
VL: QSVLTQPPSASGTPGQRVTISCSGSTSNLKRNYVYWYQQLPGTAPKLLIYRDRRRPSGVPDRFSGSKSGTSASLAISGLRSEDEADYYCAWYDRELSEWVFGGGTKLTVL
B11: RV26 IL-15 arm (antibody, V domains shown)
VH: QVQLVQSGAEVKKPGASVKVSCKASGYSFSSFGISWVRQAPGQGLEWLGWISAFNGYTKYAQKFQDRVTMTTDTSTSTAYMELRSLRSDDTAVYYCARDPAAWPLQQSLAWFDPWGQGTMVTVSS
VL: QSVLTQPPSASGTPGQRVTISCSGSTSNLKRNYVYWYQQLPGTAPKLLIYRDRRRPSGVPDRFSGSKSGTSASLAISGLRSEDEADYYCAWYDRELSEWVFGGGTKLTVL
B12: RV1 (anti-IL-15 mAb DISC0280) (antibody, V domains shown)
VH: QVQLVQSGAEVKKPGASVKVSCKASGYSFSSFGISWVRQAPGQGLEWLGWISAFNGYTKYAQKFQDRVTMTTDTSTSTAYMELRSLRSDDTAVYYCARDPAAWPLQQSLAWFDPWGQGTMVTVSS
VL: QSVLTQPPSASGTPGQRVTISCSGSTSNLKRNYVYWYQQLPGTAPKLLIYRDRRRPSGVPDRFSGSKSGTSASLAISGLRSEDEADYYCAWYDRELSEWVFGGGTKLTVL
B13: RV19:IL-15 complex (antibody)
chain 1: QVQLVQSGAEVKKPGASVKVSCKASGYSFSSFGISWVRQAPGQGLEWLGWISAFNGYTKYAQKFQDRVTMTTDTSTSTAYMELRSLRSDDTAVYYCARDPAAWPLQQSLAWFDPWGQGTMVTVSS
chain 2: QSVLTQPPSASGTPGQRVTISCSGSTSNLKRNYVYWYQQLPGTAPKLLIYRDRRRPSGVPDRFSGSKSGTSASLAISGLRSEDEADYYCAWYDRELSEWVFGGGTKLTVL
chain 3: not shown
B14: RV17 IL-15 arm (antibody, V domains shown)
VH: QVQLVQSGAEVKKPGASVKVSCKASGYSFSSFGISWVRQAPGQGLEWLGWISAFNGYTKYAQKFQDRVTMTTDTSTSTAYMELRSLRSDDTAVYYCARDPAAWPLQQSLAWFDPWGQGTMVTVSS
VL: QSVLTQPPSASGTPGQRVTISCSGSTSNLKRNYVYWYQQLPGTAPKLLIYRDRRRPSGVPDRFSGSKSGTSASLAISGLRSEDEADYYCAWYDRELSEWVFGGGTKLTVL
B15: RV32:IL-15 complex (antibody)
chain 1: QVQLVQSGAEVKKPGASVKVSCKASGYSFSSFGISWVRQAPGQGLEWLGWISAFNGYTKYAQKFQDRVTMTTDTSTSTAYMELRSLRSDDTAVYYCARDPAAWPLQQSLAWFDPWGQGTMVTVSS
chain 2: QSVLTQPPSASGTPGQRVTISCSGSTSNLKRNYVYWYQQLPGTAPKLLIYRDRRRPSGVPDRFSGSKSGTSASLAISGLRSEDEADYYCAWYDRELSEWVFGGGTKLTVL
chain 3: not shown
B16: RV15 IL-15 arm (antibody, V domains shown)
VH: QVQLVQSGAEVKKPGASVKVSCKASGYSFSSFGISWVRQAPGQGLEWLGWISAFNGYTKYAQKFQDRVTMTTDTSTSTAYMELRSLRSDDTAVYYCARDPAAWPLQQSLAWFDPWGQGTMVTVSS
VL: QSVLTQPPSASGTPGQRVTISCSGSTSNLKRNYVYWYQQLPGTAPKLLIYRDRRRPSGVPDRFSGSKSGTSASLAISGLRSEDEADYYCAWYDRELSEWVFGGGTKLTVL
B17: RV15:IL-15 complex (antibody)
chain 1: QVQLVQSGAEVKKPGASVKVSCKASGYSFSSFGISWVRQAPGQGLEWLGWISAFNGYTKYAQKFQDRVTMTTDTSTSTAYMELRSLRSDDTAVYYCARDPAAWPLQQSLAWFDPWGQGTMVTVSS
chain 2: QSVLTQPPSASGTPGQRVTISCSGSTSNLKRNYVYWYQQLPGTAPKLLIYRDRRRPSGVPDRFSGSKSGTSASLAISGLRSEDEADYYCAWYDRELSEWVFGGGTKLTVL
chain 3: not shown
B18: RV37 IL-15 arm (antibody, V domains shown)
VH: QVQLVQSGAEVKKPGASVKVSCKASGYSFSSFGISWVRQAPGQGLEWLGWISAFNGYTKYAQKFQDRVTMTTDTSTSTAYMELRSLRSDDTAVYYCARDPAAWPLQQSLAWFDPWGQGTMVTVSS
VL: QSVLTQPPSASGTPGQRVTISCSGSTSNLKRNYVYWYQQLPGTAPKLLIYRDRRRPSGVPDRFSGSKSGTSASLAISGLRSEDEADYYCAWYDRELSEWVFGGGTKLTVL
B19: RV17:IL-15 complex (antibody)
chain 1: QVQLVQSGAEVKKPGASVKVSCKASGYSFSSFGISWVRQAPGQGLEWLGWISAFNGYTKYAQKFQDRVTMTTDTSTSTAYMELRSLRSDDTAVYYCARDPAAWPLQQSLAWFDPWGQGTMVTVSS
chain 2: QSVLTQPPSASGTPGQRVTISCSGSTSNLKRNYVYWYQQLPGTAPKLLIYRDRRRPSGVPDRFSGSKSGTSASLAISGLRSEDEADYYCAWYDRELSEWVFGGGTKLTVL
chain 3: not shown

Tests used:
[1] = target: T1, IL-15Rbetagamma heterodimer; test: SPR, PD1 capture
[2] = target: T1, IL-15Rbetagamma heterodimer; test: SPR, anti-human Fc capture
IL-15 [3] = target: T2, IL-15 (human, UniProt P40933); test: SPR, PD1 capture
T2 sequence (P40933 49-162): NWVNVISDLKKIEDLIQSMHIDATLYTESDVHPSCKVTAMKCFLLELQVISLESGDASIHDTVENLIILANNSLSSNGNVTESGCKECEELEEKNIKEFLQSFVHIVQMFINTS

IL-15 [4] = target: T2, IL-15; test: SPR, anti-human Fc capture

Row | Binder | Kd [1] | Kd [2] | Kd (IL-15 [3]) | Kd (IL-15 [4])
1 | B1 | 1.07 nM | 0.771 nM | – | –
2 | B2 | 1.53 nM | 1.36 nM | – | –
3 | B3 | – | – | 0.352 nM | 0.108 nM
4 | B4 | – | – | – | 0.0769 nM
5 | B5 | – | 0.705 nM | – | –
6 | B6 | 0.72 nM | 0.732 nM | – | –
7 | B7 | 0.981 nM | 0.979 nM | – | –
8 | B8 | – | – | 0.339 nM | 0.114 nM
9 | B9 | 0.239 nM | 1.02 nM | – | –
10 | B10 | – | – | – | 0.0847 nM
11 | B11 | – | – | – | 0.396 nM
12 | B12 | – | – | – | 0.349 nM
13 | B13 | – | 1.17 nM | – | –
14 | B14 | – | – | – | 0.106 nM
15 | B15 | 1.45 nM | 0.742 nM | – | –
16 | B16 | – | – | – | 0.108 nM
17 | B17 | 0.722 nM | 0.804 nM | – | –
18 | B18 | – | – | 0.227 nM | 0.0664 nM
19 | B19 | – | 0.99 nM | – | –
